What all share (assay type): in vitro ADME
Substrate in data set [1]: Cc1cc(=O)oc2c(O)c(O)ccc12
Briefly: Methylation kinetics in pooled human liver cytosol (HLC). The following applies: other: HLC 0.5 mg/ml, substrate 0.1–40 µM, 5 min; best-fit value ± s.e.; pH 7.4. As for the experimental part:
(§1) Reaction mixtures were pre-incubated at 37°C for 5 min and initiated by the addition of SAM to a final concentration of 0.4 mM. The samples were incubated for a certain period of time and the reaction was terminated by the addition of 200 µl ice-cold acetonitrile and then centrifuged at 20 000g, 4°C, for 20 min. Control incubations were performed either without human liver cytosol, or without SAM or without substrate. The supernatants were subjected to ultra-fast liquid chromatography (UFLC) coupled with a diode array detector (DAD) and an electrospray ionization (ESI) mass spectrometer (MS) analyzer.
(§2) 7,8-DHCs and their methylated conjugates were analysed by a UFLC spectrometry system (Shimadzu, Kyoto, Japan), equipped with two LC-20AD pumps, a DGU-20A3 vacuum degasser, a SIL-20ACHT auto-sampler, a CTO-20AC column oven, an SPD-M 20A DAD, a CBM-20A communications bus module, a mass detector (2010EV) with an ESI interface and a computer equipped with UFLC-MS SOLUTION v. 3.41 software. A Shimadzu ODS (75.0 × 2.0 mm, 3 µm) analytical column was used to separate 7,8-DHCs and their methylated conjugates. Column temperature was kept at 40°C. […] The methylation samples were stable over 72 h at 4°C. 7,8-DHC methylation was quantified by the standard curves of the methylated conjugates at the detector wavelength of 325 nm, which were linear from 0.01 to 10 µM (the correlation coefficient was 0.999).
(§3) For estimating kinetic parameters, 7,8-DHCs (0.1–40 µM) were incubated with pooled HLC and S-COMT. 7,8-DHCs (0.1–40 µM) were incubated with HLC or S-COMT for 5 min, using a microsomal protein concentration of 0.5 mg ml^−1 or 0.002 mg ml^−1 for HLC and S-COMT, respectively. Kinetic constants for 7,8-DHCs methylation by HLC and S-COMT were obtained by fitting the Michaelis–Menten kinetics equation (3.1) to experimental data.
(§4) For the Michaelis–Menten kinetic model, 3.1 v=Vmax×[S]/Km+[S], where v is the rate of reaction, [S] is the substrate concentration, Vmax is the maximum velocity estimate and Km is the apparent affinity constant.
(§5) All incubations were performed in duplicate. Kinetic constants were obtained using GraphPad PRISM 6 (GraphPad Software, Inc. La Jolla, CA) software.

Substrate in data set [2]: O=C(O)Cc1cc(=O)oc2c(O)c(O)ccc12
The data set is described as above. The following applies: other: HLC 0.5 mg/ml, substrate 0.1–40 µM, 5 min; best-fit value ± s.e.; pH 7.4. As for the experimental part:
as §1, §2, §3, §4, §5

Substrate in data set [3]: O=c1cc(-c2ccccc2)c2ccc(O)c(O)c2o1
The data set is described as above. The following applies: other: HLC 0.5 mg/ml, substrate 0.1–40 µM, 5 min; best-fit value ± s.e.; pH 7.4. As for the experimental part: as §1, §2, §3, §4, §5

Substrate in data set [4]: O=c1ccc2ccc(O)c(O)c2o1
The data set is described as above. As to conditions: other: HLC 0.5 mg/ml, substrate 0.1–40 µM, 5 min; best-fit value ± s.e.; pH 7.4. The method, then:
as §1, §2, §3, §4, §5

Substrate in data set [5]: Cc1cc(=O)oc2c(O)c(O)ccc12
Briefly: Methylation kinetics with recombinant human soluble COMT. As to conditions: other: S-COMT 0.002 mg/ml, substrate 0.1–40 µM, 5 min; best-fit value ± s.e.; pH 7.4. As for the experimental part: as §1, §2, §3, §4, §5

Substrate in data set [6]: O=C(O)Cc1cc(=O)oc2c(O)c(O)ccc12
The data set is described as above. As to conditions: other: S-COMT 0.002 mg/ml, substrate 0.1–40 µM, 5 min; best-fit value ± s.e.; pH 7.4. The method, then: as §1, §2, §3, §4, §5

Substrate in data set [7]: O=c1cc(-c2ccccc2)c2ccc(O)c(O)c2o1
The description is as above. The following applies: other: S-COMT 0.002 mg/ml, substrate 0.1–40 µM, 5 min; best-fit value ± s.e.; pH 7.4. As for the experimental part: as §1, §2, §3, §4, §5

Substrate in data set [8]: O=c1ccc2ccc(O)c(O)c2o1
Described as above. As to conditions: other: S-COMT 0.002 mg/ml, substrate 0.1–40 µM, 5 min; best-fit value ± s.e.; pH 7.4. As for the experimental part:
as §1, §2, §3, §4, §5

These results are taken from PMC5792912.

One may read the Km as the concentration of substrate that gives half-maximal velocity.

B1: COMT in HLC (Homo sapiens) (protein)
chain: MGDTKEQRILNHVLQHAEPGNAQSVLEAIDTYCEQKEWAMNVGDKKGKIVDAVIQEHQPSVLLELGAYCGYSAVRMARLLSPGARLITIEINPDCAAITQRMVDFAGVKDKVTLVVGASQDIIPQLKKKYDVDTLDMVFLDHWKDRYLPDTLLLEECGLLRKGTVLLADNVICPGAPDFLAHVRGSSCFECTHYQSFLEYREVVDGLEKAIYKGPGSEAGP
notes: Pooled human liver cytosol (HLC) from seven male donors; tissue Research Institute for Liver Diseases (Shanghai, China) Lot; QROX; host or cells: pooled human liver cytosol, seven male donors
With B1, the Km in data set [1] came to 0.20 ± 0.029 µM; in data set [2], 7.52 ± 0.64 µM; in data set [3], 0.089 ± 0.015 µM; in data set [4], 0.21 ± 0.036 µM.

B2: recombinant human soluble COMT (S-COMT) (Homo sapiens) (protein)
chain: B1 chain
notes: made in house
B2: the Km in data set [5] was determined as 1.07 ± 0.10 µM; in data set [6], 7.93 ± 1.31 µM; in data set [7], 0.22 ± 0.034 µM; in data set [8], 0.48 ± 0.071 µM.
